Experimental data reported in doi:10.64898/2025.12.08.692925.

What was measured:
Experiment in all cases: split reporter
[1] = target: Tim23 mutant M1 fused to short YFP (S. cerevisiae) (UniProt P32897)
[2] = target: Tim23 mutant M2 fused to short YFP (S. cerevisiae) (UniProt P32897)
[3] = target: Tim23 mutant M4 fused to short YFP (S. cerevisiae) (UniProt P32897)

B1: Sfc1 fused to long YFP (natural protein)
chain: MSQKKKASHPAINLMAGGTAGLFEALCCHPLDTIKVRMQIYRRVAGIEHVKPPGFIKTGRTIYQKEGFLALYKGLGAVVIGIIPKMAIRFSSYEFYRTLLVNKESGIVSTGNTFVAGVGAGITEAVLVVNPMEVVKIRLQAQHLTPSEPNAGPKYNNAIHAAYTIVKEEGVSALYRGVSLTAARQATNQGANFTVYSKLKEFLQNYHQMDVLPSWETSCIGLISGAIGPFSNAPLDTIKTRLQKDKSISLEKQSGMKKIITIGAQLLKEEGFRALYKGITPRVMRVAPGQAVTFTVYEYVREHLENLGIFKKNDTPKPKPLK
percent of fluorescent cells [1]: 4%
percent of fluorescent cells [2]: 7%
percent of fluorescent cells [3]: 9%
